Laboratory results: the DeepSol protein solubility set

test: soluble on expression in E. coli; label from the status in PepcDB or PDB records

| Sequence | soluble on expression in E. coli |
| --- | --- |
| MSLKITRITVYQIALPLEHPYWLSGGRLKFEVLDATLVKIETGTGLTGWGEGTPWGHTYVPAHGPGIRAGIETMAPFIIGLDPRRGLEIERAMDLALPGHLYAKSPIDMACWDIAGQAAGLSIADLMGGGSRTPRPIASSVGAKTVEETRAVIERYRQRGYVAHSVKIGGDIERDIARVRDVESLRRDGEIVLYDVNRGWTRQQALRVMSATEDLNVMFEQPCESLDDIAAIAGKYAAPVSVDESLVTLQDAARIARDGLAEVFGIKLNRVGGLTKAARMRDIALAHGIDMFVMATGGSVLADAEALHLAATIPDANCHAVWACQDMITLDIAGGRGPRNIDGHLHLTEAPGLGVHPDEDVLGDPVGVYGEGHHHHHH | not soluble |
| MRGSHHHHHHGSMDAQSAAKCLTAVRRHSPLVHSITNNVVTNFTANGLLALGASPVMAYAKEEVADMAKIAGALVLNIGTLSKESVEAMIIAGKSANEHGVPVILDPVGAGATPFRTESARDIIREVRLAAIRGNAAEIAHTVGVTDWLIKGVDAGEGGGDIIRLAQQAAQKLNTVIAITGEVDVIADTSHVYTLHNGHKLLTKVTGAGSLLTSVVGAFCAVEENPLFAAIAAISSYGVAAQLAAQQTADKGPGSFQIELLNKLSTVTEQDVQEWATIERVTVS | soluble |
| MDNKLSKIPTETFGEYIKRIRELRGYSQRKLSTLSDLSNTTICRIEKGSENGIENPDAETVVKLAEGLKLEKKALLIAAGYLDNENVEETTDLKECIRIALQKLGWINSYNDINEETITYVEFLLKKYGNKYKQIP | not soluble |
| MGSDKIHHHHHHMKKSLIELLEARQKATDELAEVKLKKATIEAKMKSSTIEDDDLEQLKTDAESLVSQATAIKETIAGLDSDIEETEEELSKAAKIIKEKQKGNTPMDYLKTKAAALDFVRILMDNEGSANSARKAWEANLVEKGVTNLTKILPEPVLIAIQDAFTNYNGILNHVSKDPRYAVRVALQTQVSQAKGHKAGKTKKDEDFTFLDFTINSATVYIKYAFEYSDLKKDTTGAYFNYVMKELAQGFIRTIERAVVIGDGKSNSAEDKITEIKSIAEETEANLFETQEINVAGVFDNAVLETLVAGIDKMVPNTTPILVTSKAIARKLKLVKDAEGRYIDPQPFAPIATNGNVIAGFQVYIYDWMDGATNPIIAFADQAYKMIGDEAAADRFDDYDVTVNRRHIELASVMGGRLAQYKSAVKFTNPAG | not soluble |
| MTSSDLPVMLFAAGFGTRMGDLTRTRPKPLIEVAGRPLVDHTLDLARAVSPPRIVANLHYLAPLLAAHLAPQGVLLSHEQPDILDTGGGLRQALPLLAAETVFTANSDAIWSGPNPFALLAEAWEPARMDALLMCVPVGQAIGHAGHGDFSRDAQGRIERGPGLIYGGVQIVKTGGLGDFDMPAFSLNLLWNRIGAAGRLFALEYPGRWCDVGHPGGIALAEEMLRDVLEHHHHHH | soluble |
| MGSDKIHHHHHHMIGHSEVIRCFGMSGKVYFFNDSGNIQKGVHDLPPKGLACFVKIKNMMMQAKPAEVSMVDALVDPWLGAIGRDFEGYRNHCRRVFIFACTLAGAEGESREKIAIAAAFHDLGIWTDNTFDYLEPSKRLASAYLASTSKAEWTDEIKAMIEQHHKVTPWSCKPGWLVEPFRKADWIDVTLGARNFELNRSYIREIQRRYPNAGFHATLARLSFERMKTHPKDPLPMMRW | not soluble |
| MGSDKIHHHHHHMRLPQKMFKIDTYLSPGEAFHFVRKELSEASPVLEHDHDYYELFLIQQGQVYHWINGLEEMLEPGHMVFVRPSDRHALQGAPGTGAKILNVMFRTQTAAHLVTRYADVFGGRFFWQPGPLPVTLRLHGPQRERAINSMLTLDTSFRNLARIELFLLSVMTHVLDTGEIVDGRAPGWLLQACHAAREPRVFRQGADGFLHAAGRSQAHVCRQARRYLGLSPTQYVNRIRIQHAAMLLAGTERGLPDIAADCGFENLSYFHRLFREQYGTTPRGYRHRHVRPIAPL | not soluble |
| MHSFPPLLLLLFWGVVSHSFPATLETQEQDVDLVQKYLEKYYNLKNDGRQVEKRRNSGPVVEKLKQMQEFFGLKVTGKPDAETLKVMKQPRCGVPDVAQFVLTEGNPRWEQTHLTYRIENYTPDLPRADVDHAIEKAFQLWSNVTPLTFTKVSEGQADIMISFVRGDHRDNSPFDGPGGNLAHAFQPGPGIGGDAHFDEDERWTNNFREYNLHRVAAHELGHSLGLSHSTDIGALMYPSYTFSGDVQLAQDDIDGIQAIYGRSQNPVQPIGPQTPKACDSKLTFDAITTIRGEVMFFKDRFYMRTNPFYPEVELNFISVFWPQLPNGLEAAYEFADRDEVRFFKGNKYWAVQGQNVLHGYPKDIYSSFGFPRTVKHIDAALSEENTGKTYFFVANKYWRYDEYKRSMDPGYPKMIAHDFPGIGHKVDAVFMKDGFFYFFHGTRQYKFDPKTKRILTLQKANSWFNCRKN | soluble |
| MDLVDKRDVLIGDFRPSLGFYGGVRVGVYLDTTEPKHAKIKGFAMETLKRSSKVWLQELRSNLNIFWGTIESEISKNGAASYIFPLQRCIFSFLCASLAGVDASVSPDIAENGWKTINTWLALQVIPTAKLGVVPQPLEEILLHTWPYPSLLIAGNYKKLYNFIDENAGDCLRLGQEEFGLTRDEAIQNLLFVLGFNAYGGFSVFLPSLIGRITGDNSGLQERIRTEVRRVCGSGSDLNFKTVNEMELVKSVVYETLRFSPPVPLQFARARKDFQISSHDAVFEVKKGELLCGYQPLVMRDANVFDEPEEFKPDRYVGETGSELLNYLYWSNGPQTGTPSASNKQCAAKDIVTLTASLLVADLFLRYDTITGDSGSIKAVVKAK | soluble |
| MSLYTINIIPRVLHFKQPAGTSRGSYTTRNVWYIHLSSIECPGRVGVGECAPLPKLSCDDLPDYEQVLRSACQRLEQTGELDIESLRGYPSILFGLETALRHYETQSWALWDTPFSRGEVGIPINGLIWMGSFDRMLQQIEVKMQAGYRCIKLKIGAINFEEELALLRHIRAHYSAREIELRVDANGAFSPADAMDKLNRLAELDLHSIEQPIRAGQWEEMARLAAESPLPIALDEELIGCNALERKRELLAAIHPRYIILKPSLHGGISGGNEWIAEAEKQHIGWWITSALESNIGLNAIAQWCATFRNPLPQGLGTGLLFTDNVEMPLEIRKDCLWFCKEGHHHHHH | soluble |
| MGSDKIHHHHHHMKIAVVGAGLTGLKTAKELAEHAKVVVFEPDDVGGLVATFREFSIEKFYHHCFRDDAFLLEEIKRCGLKSKLVWKIAKTGFAANGKIYPLNTPFEILRYPLLTFGEKIRLARFTLKSRKLNYEDFDDVGVSEGIREELGEGLLERFFMPLLRSKFGENAEKVSYAWLLGRVAIRSNRKYSGEEIGYIRHGFQQLVDKMAEGLEIRRERARIRKNARWDVNGEDFDAVVYTAPLSELGELAEKLGIPEVRYQSSVCALIGAEETLTENIYWTNIADKMSFGAVIEHTNFMPFEDYGIHLMYLAAYSTPDGWLFNLSDKEIEKLFLSDLRKLGFKTESVRFVRVFKAKYSGPIYEKGYRRKITPYRVAEGFYVAGMTSRPNYPERSMNGSIRAGKEVAEQVKEDLL | not soluble |
| MGSDKIHHHHHHMSRRHYNLPPLTTLTAFEAAARHLSFKDAAKELSVTPGAVSHQVKALEGELGVALFRRKHRGVDLTVPGQTLYDTLAGSLTRISQSLQSIRDQSSAGVVTVGSTTAMAAMWLSPAVIRFWRDHPEININQVVRDRAFTTSAELDLYIWYGREKDQRLDQFPLYRDRLLPVAAPERAAELAGADLDVLASQRLIHLEGDDISWTKWHDWFRQLGYSGPVASGIRVNNYSIALQAARDGAGLTLGWERLISPLITQGDLAIIGPHVLPAPERFFLVSKPDEELTPSARLLRDWIIEEASQITDEPC | not soluble |
| MSNLKQLRTRIKSVKSTQKITKAMQLVSASKMAKIKSQIANSNFYIEAVSKMMSAILSIDMYELSIEEQKFFNTVPNKANLLIVMTSQRGLCGTFNYSIIKQVKNDIKELENKGEQIKLIIIGKKGYEALKRQYVNYIDSYFELPKIHDENLMLQVKQKIMSAVENLEVSNCVIYFNKFKNAMTQIMTRQQILPVAKYQDDSMIDNPIVNLVGFGYKERGVKPINNRRATSDIVGESKSIDYNYEYEGESLISNLINLYVNSQINYALLQSRASEEGARMTAMENATNNANDLISKLVLKLNRSRQAIITTELIEIIAGSEVV | not soluble |
